From paper PMC11601812, “Structural proteomics defines a sequential priming mechanism for the progesterone receptor” (Research Square, 2024)

B1: steroid receptor coactivator 3 (SRC3), full-length, Strep II tagged (natural protein)
chain: not shown
notes: full-length open reading frame, codon-optimised for insect cells; NR-boxes at 685-689, 738-742 and 1057-1061; no cleavage step is described; source: Sf9 insect cells (baculovirus), purified (StrepTrap XT, SEC); not shown: Strep II, N-terminal, kept
B2: progesterone receptor isoform A (PR-A), full-length, Strep II tagged (receptor, human, UniProt P06401-2 1-769, looked up)
chain: MSRSGCKVGDSSGTAAAHKVLPRGLSPARQLLLPASESPHWSGAPVKPSPQAAAVEVEEEDGSESEESAGPLLKGKPRALGGAAAGGGAAAVPPGAAAGGVALVPKEDSRFSAPRVALVEQDAPMAPGRSPLATTVMDFIHVPILPLNHALLAARTRQLLEDESYDGGAGAASAFAPPRSSPCASSTPVAVGDFPDCAYPPDAEPKDDAYPLYSDFQPPALKIKEEEEGAEASARSPRSYLVAGANPAAFPDFPLGPPPPLPPRATPSRPGEAAVTAAPASASVSSASSSGSTLECILYKAEGAPPQQGPFAPPPCKAPGASGCLLPRDGLPSTSASAAAAGAAPALYPALGLNGLPQLGYQAAVLKEGLPQVYPPYLNYLRPDSEASQSPQYSFESLPQKICLICGDEASGCHYGVLTCGSCKVFFKRAMEGQHNYLCAGRNDCIVDKIRRKNCPACRLRKCCQAGMVLGGRKFKKFNKVRVVRALDAVALPQPVGVPNESQALSQRFTFSPGQDIQLIPPLINLLMSIEPDVIYAGHDNTKPDTSSSLLTSLNQLGERQLLSVVKWSKSLPGFRNLHIDDQITLIQYSWMSLMVFGLGWRSYKHVSGQMLYFAPDLILNEQRMKESSFYSLCLTMWQIPQEFVKLQVSQEEFLCMKVLLLLNTIPLEGLRSQTQFEEMRSSYIRELIKAIGLRQKGVVSSSQRFYQLTKLLDNLHDLVKQLHLYCLNTFIQSRALSVEFPEMMSEVIAAQLPKILAGMVKPLLFHKK
notes: Progesterone receptor isoform PR-A, human; N-terminal truncation (missing aa 1-164) of full-length PR-B; no cleavage step is described and the DSF methods call the purified proteins SII-tagged; Carries the steroid R5020 (agonist) or RU486 (antagonist) according to the assay; Monomer without DNA, dimer on PRE DNA by SEC-MALS; The reporter-assay plasmids carry hPGR NM_000926.4 and NM_001202474.3; …
B3: progesterone receptor isoform B (PR-B), full-length, Strep II tagged (receptor, human, UniProt P06401 1-933, looked up)
chain: MTELKAKGPRAPHVAGGPPSPEVGSPLLCRPAAGPFPGSQTSDTLPEVSAIPISLDGLLFPRPCQGQDPSDEKTQDQQSLSDVEGAYSRAEATRGAGGSSSSPPEKDSGLLDSVLDTLLAPSGPGQSQPSPPACEVTSSWCLFGPELPEDPPAAPATQRVLSPLMSRSGCKVGDSSGTAAAHKVLPRGLSPARQLLLPASESPHWSGAPVKPSPQAAAVEVEEEDGSESEESAGPLLKGKPRALGGAAAGGGAAAVPPGAAAGGVALVPKEDSRFSAPRVALVEQDAPMAPGRSPLATTVMDFIHVPILPLNHALLAARTRQLLEDESYDGGAGAASAFAPPRSSPCASSTPVAVGDFPDCAYPPDAEPKDDAYPLYSDFQPPALKIKEEEEGAEASARSPRSYLVAGANPAAFPDFPLGPPPPLPPRATPSRPGEAAVTAAPASASVSSASSSGSTLECILYKAEGAPPQQGPFAPPPCKAPGASGCLLPRDGLPSTSASAAAAGAAPALYPALGLNGLPQLGYQAAVLKEGLPQVYPPYLNYLRPDSEASQSPQYSFESLPQKICLICGDEASGCHYGVLTCGSCKVFFKRAMEGQHNYLCAGRNDCIVDKIRRKNCPACRLRKCCQAGMVLGGRKFKKFNKVRVVRALDAVALPQPVGVPNESQALSQRFTFSPGQDIQLIPPLINLLMSIEPDVIYAGHDNTKPDTSSSLLTSLNQLGERQLLSVVKWSKSLPGFRNLHIDDQITLIQYSWMSLMVFGLGWRSYKHVSGQMLYFAPDLILNEQRMKESSFYSLCLTMWQIPQEFVKLQVSQEEFLCMKVLLLLNTIPLEGLRSQTQFEEMRSSYIRELIKAIGLRQKGVVSSSQRFYQLTKLLDNLHDLVKQLHLYCLNTFIQSRALSVEFPEMMSEVIAAQLPKILAGMVKPLLFHKK
notes: Progesterone receptor isoform PR-B, human; full-length open reading frame (residues up to 933 are named), codon-optimised for insect cells; no cleavage step is described and the DSF methods call the purified proteins SII-tagged; Carries R5020 or RU486 according to the assay; In the functional row PR-B was expressed from a VectorBuilder plasmid in 293T cells (hRluc:P2A:hPGR), not this Sf9 protein; …

Tests used:
[1] = target: B2; experiment: SEC-MALS; R5020-bound PR-A, SRC3 and p300 mixed with PRE DNA; Superose 6 Increase; 20 mM Hepes, 50 mM NaCl, 5% glycerol, 1 mM TCEP, with or without 1 M urea, pH 7.5; settings: both partners purified
[2] = target: T1, histone acetyltransferase p300, full-length, Strep II tagged (human, UniProt Q09472 1-2414); experiment: HDX-MS; differential, R5020-bound PR:SRC3 vs PR:SRC3:p300, with and without PRE DNA, sequential addition (DNA, PR, SRC3, p300); 4 C, 20 mM Hepes, 200 mM NaCl, 1 M urea, 1 mM TCEP, 5% glycerol, pD 7.9; settings: both partners purified
T1 construct: Histone acetyltransferase p300, human; full-length open reading frame, codon-optimised for insect cells; no cleavage step is described; source: Sf9 insect cells (baculovirus), purified (StrepTrap XT, SEC); not shown: Strep II, N-terminal, kept

[3] = target: the molecule itself; experiment: SEC-MALS; R5020-bound PR mixed with 32-mer PRE DNA; Superose 6 Increase; 20 mM Hepes, 50 mM NaCl, 5% glycerol, 1 mM TCEP, with or without 1 M urea, pH 7.5
[4] = target: B1; experiment: HDX-MS; differential, R5020-bound PR vs PR:SRC3 and SRC3 vs PR:SRC3, with and without PRE DNA (2:1:1 PR:SRC3:PRE), sequential addition; 4 C, 20 mM Hepes, 200 mM NaCl, 1 M urea, 1 mM TCEP, 5% glycerol, pD 7.9; settings: both partners purified
[5] = target: T1, histone acetyltransferase p300, …; experiment: cross-linking; DSSO XL-MS of R5020-bound PR:SRC3:p300, with and without PRE DNA (PR:SRC3:p300:DNA 2:1:1:1.5); PR 5 uM, 3 mM DSSO, 25 C 45 min; 20 mM Hepes pH 7.5, 200 mM NaCl, 1 M urea, 1 mM TCEP, 5% glycerol; settings: both partners purified
[6] = target: the molecule itself; experiment: SEC-MALS; each protein alone, PR bound to agonist R5020, no DNA; Superose 6 Increase; 20 mM Hepes, 50 mM NaCl, 5% glycerol, 1 mM TCEP, with or without 1 M urea, pH 7.5; about 20-100 ug injected
[7] = target: T1, histone acetyltransferase p300, …; experiment: cross-linking; DSSO XL-MS of two proteins (R5020-bound PR with SRC3, or PR-B with p300 without SRC3), with and without PRE DNA; PR 5 uM, 3 mM DSSO, 25 C 45 min; 20 mM Hepes pH 7.5, 200 mM NaCl, 1 M urea, 1 mM TCEP, 5% glycerol; settings: both partners purified

T1 sequence (Q09472 whole entry): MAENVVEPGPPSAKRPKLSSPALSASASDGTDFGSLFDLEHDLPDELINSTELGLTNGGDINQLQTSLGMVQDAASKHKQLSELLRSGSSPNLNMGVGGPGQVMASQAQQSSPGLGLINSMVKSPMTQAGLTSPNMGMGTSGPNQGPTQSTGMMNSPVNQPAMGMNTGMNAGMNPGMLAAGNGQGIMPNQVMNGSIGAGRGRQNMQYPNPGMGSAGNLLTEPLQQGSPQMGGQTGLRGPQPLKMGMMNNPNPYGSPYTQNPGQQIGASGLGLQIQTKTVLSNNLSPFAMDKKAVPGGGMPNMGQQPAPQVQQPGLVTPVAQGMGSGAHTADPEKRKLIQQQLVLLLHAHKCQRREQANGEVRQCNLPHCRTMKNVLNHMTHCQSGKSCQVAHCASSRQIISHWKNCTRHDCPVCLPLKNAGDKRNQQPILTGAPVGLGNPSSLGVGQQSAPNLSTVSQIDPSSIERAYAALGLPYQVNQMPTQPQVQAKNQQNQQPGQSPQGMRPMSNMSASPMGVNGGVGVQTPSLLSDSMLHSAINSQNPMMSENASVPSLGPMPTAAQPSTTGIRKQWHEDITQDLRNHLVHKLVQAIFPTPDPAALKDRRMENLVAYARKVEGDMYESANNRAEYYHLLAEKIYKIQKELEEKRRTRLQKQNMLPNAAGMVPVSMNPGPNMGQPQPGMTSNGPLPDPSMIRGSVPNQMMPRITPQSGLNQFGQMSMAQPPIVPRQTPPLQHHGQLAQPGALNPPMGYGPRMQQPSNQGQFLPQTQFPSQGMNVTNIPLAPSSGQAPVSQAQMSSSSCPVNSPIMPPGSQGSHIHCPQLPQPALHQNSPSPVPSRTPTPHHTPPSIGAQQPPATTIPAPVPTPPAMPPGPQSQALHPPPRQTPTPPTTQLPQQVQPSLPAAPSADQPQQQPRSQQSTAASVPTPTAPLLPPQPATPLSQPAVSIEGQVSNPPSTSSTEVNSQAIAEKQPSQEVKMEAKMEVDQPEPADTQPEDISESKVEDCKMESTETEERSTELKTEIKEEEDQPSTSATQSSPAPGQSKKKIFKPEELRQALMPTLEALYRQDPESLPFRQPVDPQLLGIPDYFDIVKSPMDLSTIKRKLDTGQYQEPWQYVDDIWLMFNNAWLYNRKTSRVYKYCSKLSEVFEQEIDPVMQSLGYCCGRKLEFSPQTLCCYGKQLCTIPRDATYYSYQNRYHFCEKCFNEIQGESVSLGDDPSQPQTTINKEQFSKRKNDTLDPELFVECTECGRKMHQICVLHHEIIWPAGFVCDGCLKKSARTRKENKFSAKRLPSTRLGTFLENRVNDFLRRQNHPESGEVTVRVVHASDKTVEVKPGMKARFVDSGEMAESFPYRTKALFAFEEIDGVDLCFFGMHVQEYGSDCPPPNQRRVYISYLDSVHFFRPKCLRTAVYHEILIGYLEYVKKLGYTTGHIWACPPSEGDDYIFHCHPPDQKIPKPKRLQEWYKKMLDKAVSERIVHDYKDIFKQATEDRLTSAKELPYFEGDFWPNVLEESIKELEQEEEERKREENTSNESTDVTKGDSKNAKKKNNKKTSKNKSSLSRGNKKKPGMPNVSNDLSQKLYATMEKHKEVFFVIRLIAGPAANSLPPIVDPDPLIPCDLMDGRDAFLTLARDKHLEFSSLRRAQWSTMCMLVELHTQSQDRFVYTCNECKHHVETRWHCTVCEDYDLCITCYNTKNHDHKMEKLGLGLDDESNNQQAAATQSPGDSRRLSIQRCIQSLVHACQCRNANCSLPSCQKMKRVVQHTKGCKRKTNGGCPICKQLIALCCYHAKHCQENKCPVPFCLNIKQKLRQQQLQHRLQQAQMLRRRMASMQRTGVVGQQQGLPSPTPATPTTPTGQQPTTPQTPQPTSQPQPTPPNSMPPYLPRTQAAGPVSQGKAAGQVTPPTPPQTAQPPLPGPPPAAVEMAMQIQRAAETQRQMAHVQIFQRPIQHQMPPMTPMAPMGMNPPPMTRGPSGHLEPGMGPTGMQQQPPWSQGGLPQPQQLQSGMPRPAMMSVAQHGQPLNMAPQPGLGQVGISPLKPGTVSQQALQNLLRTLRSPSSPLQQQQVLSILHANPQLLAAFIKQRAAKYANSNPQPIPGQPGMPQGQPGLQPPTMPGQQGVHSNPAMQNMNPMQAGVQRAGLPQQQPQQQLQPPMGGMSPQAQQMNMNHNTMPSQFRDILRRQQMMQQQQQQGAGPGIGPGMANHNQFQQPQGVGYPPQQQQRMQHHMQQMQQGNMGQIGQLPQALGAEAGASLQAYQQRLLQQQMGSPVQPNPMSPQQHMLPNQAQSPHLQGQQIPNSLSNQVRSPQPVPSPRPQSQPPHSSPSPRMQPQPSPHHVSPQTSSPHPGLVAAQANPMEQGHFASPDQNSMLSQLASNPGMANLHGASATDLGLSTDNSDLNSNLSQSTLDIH

## B1
[1]
  stoichiometry N: 0.5
[2]
  binding result: binds

## B2
[3]
  stoichiometry N: 2
[4]
  binding result: binds
[5]
  binding result: binds

## B3
[6]
  stoichiometry N: 2
[4]
  binding result: binds
[7]
  binding result: binds
